B1: (A14E, A21G, A22(GQAP)18, A94G, A95Q, A96A, A97K^, A98P, B16E, B25H, B29R, desB30 human insulin)/(227A, 234A, 235K, 297E, 315Q, 384Q, des447 hIgG4-Fc(228-447)) … (other)
chain 1: GIVEQCCTSICSLEQLENYCGGQAPGQAPGQAPGQAPGQAPGQAPGQAPGQAPGQAPGQAPGQAPGQAPGQAPGQAPGQAPGQAPGQAPGQAPGQAKP
chain 2: FVNQHLCGSHLVEALELVCGERGFHYTPR
chain 3: ASCPAPEAKGGPSVFLFPPKPKDTLMISRTPEVTCVVVDVSQEDPEVQFNWYVDGVEVHNAKTKPREEQFESTYRVVSVLTVLHQDWLQGKEYKCKVSNKGLPSSIEKTISKAKGQPREPQVYTLPPSQEEMTKNQVSLTCLVKGFYPSDIAVEWESQGQPENNYKTTPPVLDSDGSFFLYSRLTVDKSRWQEGNVFSCSVMHEALHNHYTQKSLSLSLG
modifications: Cys229 (EU numbering) sulphur bound to an acetyl arm of the linker; A97K N(eps) acylated by the trivalent linker 4-[bis[2-[(2-acetyl)amino]ethyl]amino]-4-oxo-butanoyl
B2: A14E, A21G, A22(GQEP)6, A46K^, A47P, B25H, B29R, desB30 human insulin/(227A, 234A, 235K, 297E, 315Q, 384Q, des447 hIgG4-Fc(228-447)) … (other)
chain 1: GIVEQCCTSICSLEQLENYCGGQEPGQEPGQEPGQEPGQEPGQEPKP
chain 2: FVNQHLCGSHLVEALYLVCGERGFHYTPR
chain 3: B1 chain 3
modifications: Cys229 (EU numbering) sulphur bound to an acetyl arm of the linker; A46K N(eps) acylated by the trivalent linker 4-[bis[2-[(2-acetyl)amino]ethyl]amino]-4-oxo-butanoyl
notes: also called Ex 5.32
B3: (A14E, A21G, A22(GQAP)24, A118G, A119Q, A120A, A121K^, A122P, B29R, desB30 human insulin)/(227A, 234A, 235K, 297E, 315Q, 384Q, des447 hIgG4-Fc(228-447)) … (other)
chain 1: GIVEQCCTSICSLEQLENYCGGQAPGQAPGQAPGQAPGQAPGQAPGQAPGQAPGQAPGQAPGQAPGQAPGQAPGQAPGQAPGQAPGQAPGQAPGQAPGQAPGQAPGQAPGQAPGQAPGQAKP
chain 2: FVNQHLCGSHLVEALYLVCGERGFFYTPR
chain 3: B1 chain 3
modifications: Cys229 (EU numbering) sulphur bound to an acetyl arm of the linker; A121K N(eps) acylated by the trivalent linker 3,5-bis[(2-acetyl)amino]benzoyl
notes: also called Ex 5.29
B4: A14E, A21G, A22(GQEP)12, A70K^, A71P, B25H, B29R, desB30 human insulin/(227A, 234A, 235K hIgG4-Fc(228-447)) … (other)
chain 1: GIVEQCCTSICSLEQLENYCGGQEPGQEPGQEPGQEPGQEPGQEPGQEPGQEPGQEPGQEPGQEPGQEPKP
chain 2: FVNQHLCGSHLVEALYLVCGERGFHYTPR
chain 3: ASCPAPEAKGGPSVFLFPPKPKDTLMISRTPEVTCVVVDVSQEDPEVQFNWYVDGVEVHNAKTKPREEQFNSTYRVVSVLTVLHQDWLNGKEYKCKVSNKGLPSSIEKTISKAKGQPREPQVYTLPPSQEEMTKNQVSLTCLVKGFYPSDIAVEWESNGQPENNYKTTPPVLDSDGSFFLYSRLTVDKSRWQEGNVFSCSVMHEALHNHYTQKSLSLSLGK
modifications: Cys229 (EU numbering) sulphur bound to an acetyl arm of the linker; A70K N(eps) acylated by the trivalent linker 4-[bis[2-[(2-acetyl)amino]ethyl]amino]-4-oxo-butanoyl
notes: also called Ex 5.8
B5: (A14E, A21G, A22(GQEP)19, A98K^, A99P, B25H, B29R, desB30 human insulin)/(227A, 234A, 235K hIgG4-Fc(228-447)) … (other)
chain 1: GIVEQCCTSICSLEQLENYCGGQEPGQEPGQEPGQEPGQEPGQEPGQEPGQEPGQEPGQEPGQEPGQEPGQEPGQEPGQEPGQEPGQEPGQEPGQEPKP
chain 2: FVNQHLCGSHLVEALYLVCGERGFHYTPR
chain 3: B4 chain 3
modifications: Cys229 (EU numbering) sulphur bound to an acetyl arm of the linker; A98K N(eps) acylated by the trivalent linker 4-[bis[2-[(2-acetyl)amino]ethyl]amino]-4-oxo-butanoyl
notes: Fc made in E. coli; also called Ex 5.1
B6: A14E, A21G, A22(GQAPGQAPGQEP)6-GQAP, A98K^, A99P, B3Q, B25H, B29R, desB30 human insulin/(227A, 234A, 235K hIgG4-Fc(228-447)) … (other)
chain 1: GIVEQCCTSICSLEQLENYCGGQAPGQAPGQEPGQAPGQAPGQEPGQAPGQAPGQEPGQAPGQAPGQEPGQAPGQAPGQEPGQAPGQAPGQEPGQAPKP
chain 2: FVQQHLCGSHLVEALYLVCGERGFHYTPR
chain 3: B4 chain 3
modifications: Cys229 (EU numbering) sulphur bound to an acetyl arm of the linker; A98K N(eps) acylated by the trivalent linker 4-[bis[2-[(2-acetyl)amino]ethyl]amino]-4-oxo-butanoyl
notes: also called Ex 5.5
B7: A14E, A21G, A22(GQEP)6, A46K^, A47P, B25H, B29R, desB30 human insulin/(227A, 234A, 235K hIgG4-Fc(228-447)) … (other)
chain 1: B2 chain 1
chain 2: FVNQHLCGSHLVEALYLVCGERGFHYTPR
chain 3: B4 chain 3
modifications: Cys229 (EU numbering) sulphur bound to an acetyl arm of the linker; A46K N(eps) acylated by the trivalent linker 4-[bis[2-[(2-acetyl)amino]ethyl]amino]-4-oxo-butanoyl
notes: also called Ex 5.7

The binders below were run against insulin receptor of isolated rat adipocytes (rat, UniProt P15127 27-1383) (assay: cell-based or functional assay).
Sequence of insulin receptor of isolated rat adipocytes (P15127 27-1383): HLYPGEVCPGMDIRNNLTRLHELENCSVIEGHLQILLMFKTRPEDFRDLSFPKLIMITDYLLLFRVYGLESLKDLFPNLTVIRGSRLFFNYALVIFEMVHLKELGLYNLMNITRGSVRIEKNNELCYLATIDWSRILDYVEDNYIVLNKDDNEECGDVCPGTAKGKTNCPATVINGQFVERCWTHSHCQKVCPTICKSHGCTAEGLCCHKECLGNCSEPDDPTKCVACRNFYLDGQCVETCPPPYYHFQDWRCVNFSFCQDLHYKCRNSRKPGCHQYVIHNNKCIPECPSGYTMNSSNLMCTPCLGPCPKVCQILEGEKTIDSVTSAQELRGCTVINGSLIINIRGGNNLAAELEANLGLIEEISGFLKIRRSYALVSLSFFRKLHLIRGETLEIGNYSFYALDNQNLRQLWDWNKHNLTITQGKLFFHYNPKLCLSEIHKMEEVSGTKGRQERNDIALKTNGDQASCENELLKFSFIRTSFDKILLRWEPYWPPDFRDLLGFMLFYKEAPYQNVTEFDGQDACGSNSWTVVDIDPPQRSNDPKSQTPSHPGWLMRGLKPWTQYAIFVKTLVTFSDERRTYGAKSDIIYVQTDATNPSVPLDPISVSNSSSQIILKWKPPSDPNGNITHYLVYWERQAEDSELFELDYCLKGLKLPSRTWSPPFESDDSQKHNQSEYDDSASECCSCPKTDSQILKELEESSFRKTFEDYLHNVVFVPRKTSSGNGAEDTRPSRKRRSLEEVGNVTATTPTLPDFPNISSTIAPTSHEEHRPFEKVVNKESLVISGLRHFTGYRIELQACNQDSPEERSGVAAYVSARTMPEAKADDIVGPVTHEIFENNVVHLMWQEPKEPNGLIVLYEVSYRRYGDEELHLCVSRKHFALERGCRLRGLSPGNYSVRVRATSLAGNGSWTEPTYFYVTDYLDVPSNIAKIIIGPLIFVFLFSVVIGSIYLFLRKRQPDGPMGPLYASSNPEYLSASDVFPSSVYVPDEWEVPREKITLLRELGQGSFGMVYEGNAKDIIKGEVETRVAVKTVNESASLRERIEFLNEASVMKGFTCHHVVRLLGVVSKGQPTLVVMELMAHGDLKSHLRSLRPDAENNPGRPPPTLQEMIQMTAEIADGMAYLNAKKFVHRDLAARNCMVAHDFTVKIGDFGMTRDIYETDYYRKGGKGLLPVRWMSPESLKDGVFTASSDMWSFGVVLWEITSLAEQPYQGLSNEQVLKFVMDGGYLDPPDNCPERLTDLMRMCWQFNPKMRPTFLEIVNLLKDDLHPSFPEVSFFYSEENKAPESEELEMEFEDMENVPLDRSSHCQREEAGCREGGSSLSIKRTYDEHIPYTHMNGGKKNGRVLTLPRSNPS

Point of comparison: B2, “Lipogenesis in rat adipocytes [Potency (%)] Mean Value” 3.72 % of human insulin. Against it:
- B1 — lower, 0.6 % of human insulin
- B3 — lower, 2.64 % of human insulin
- B4 — higher, 5.31 % of human insulin
- B5 — higher, 6.69 % of human insulin
- B6 — lower, 2.21 % of human insulin
- B7 — lower, 1.88 % of human insulin

Each binder was assayed against T1, insulin receptor A (UniProt P06213-2 28-1370, limits assumed) (assay: summary of Table 3; lower end tied by Table 3 to the compound of Example 5.31 (0.47)).
T1 sequence (P06213 other isoform, or with tags, fused parts or gaps limits assumed): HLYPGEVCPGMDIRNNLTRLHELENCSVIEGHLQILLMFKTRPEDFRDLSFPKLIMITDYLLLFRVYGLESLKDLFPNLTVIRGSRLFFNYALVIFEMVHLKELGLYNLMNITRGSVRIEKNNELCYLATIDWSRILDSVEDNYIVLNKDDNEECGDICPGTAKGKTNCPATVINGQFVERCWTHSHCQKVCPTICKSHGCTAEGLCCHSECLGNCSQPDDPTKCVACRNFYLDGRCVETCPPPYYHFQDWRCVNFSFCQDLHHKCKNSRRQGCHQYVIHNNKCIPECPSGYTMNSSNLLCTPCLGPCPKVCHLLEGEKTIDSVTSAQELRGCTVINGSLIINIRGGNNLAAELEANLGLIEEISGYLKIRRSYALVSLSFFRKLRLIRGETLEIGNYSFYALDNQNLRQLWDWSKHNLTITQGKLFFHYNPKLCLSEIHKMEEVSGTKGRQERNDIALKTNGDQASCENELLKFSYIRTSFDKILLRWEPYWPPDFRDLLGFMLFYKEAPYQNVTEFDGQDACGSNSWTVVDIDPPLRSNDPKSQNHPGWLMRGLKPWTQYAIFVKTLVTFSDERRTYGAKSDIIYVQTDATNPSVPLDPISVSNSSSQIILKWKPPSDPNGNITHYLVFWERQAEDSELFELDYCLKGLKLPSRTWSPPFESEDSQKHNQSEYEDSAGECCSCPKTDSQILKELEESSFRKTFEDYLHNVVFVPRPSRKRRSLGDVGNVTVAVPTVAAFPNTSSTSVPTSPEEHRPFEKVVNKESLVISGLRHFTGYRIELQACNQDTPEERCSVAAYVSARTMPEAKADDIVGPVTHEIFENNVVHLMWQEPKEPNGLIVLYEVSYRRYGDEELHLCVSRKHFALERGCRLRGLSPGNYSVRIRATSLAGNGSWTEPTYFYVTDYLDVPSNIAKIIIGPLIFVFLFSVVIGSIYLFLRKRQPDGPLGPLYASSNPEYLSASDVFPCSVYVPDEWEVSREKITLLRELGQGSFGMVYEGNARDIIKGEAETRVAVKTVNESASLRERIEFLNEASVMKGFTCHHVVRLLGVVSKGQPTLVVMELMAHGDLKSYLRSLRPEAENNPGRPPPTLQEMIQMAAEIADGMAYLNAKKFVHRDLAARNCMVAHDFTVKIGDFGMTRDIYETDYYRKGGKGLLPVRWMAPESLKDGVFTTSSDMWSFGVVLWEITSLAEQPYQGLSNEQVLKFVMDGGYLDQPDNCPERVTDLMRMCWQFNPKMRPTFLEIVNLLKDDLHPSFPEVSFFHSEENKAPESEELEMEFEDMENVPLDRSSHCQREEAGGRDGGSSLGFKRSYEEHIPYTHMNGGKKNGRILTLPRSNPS

With B1 the “insulin receptor affinity relative to human insulin” value was 0.5 to 10%.

Each binder was assayed against T1, insulin receptor A (assay: summary of Table 3; upper end tied by Table 3 to the compound of Example 5.8 (10.58)).

B4 was tested, and the “insulin receptor affinity relative to human insulin” value was 0.5 to 10%.

What follows are binders tested against T1, insulin receptor A (assay: insulin receptor binding assay as in Vienberg et al. 2011; relative to human insulin on insulin receptor A (100%)).

Point of comparison: B4, “Insulin receptor affinity [IC50 relative to HI (%)]” value 10.6%. Against it:
- B1 — lower, 0.47%
- B2 — lower, 2.16%
- B3 — lower, 3.06%
- B5 — lower, 5.07%
- B6 — lower, 3.34%
- B7 — lower, 2.43%
